Test results taken from patent US20220145281A1, “NEW VACCINAL STRATEGY TO PREVENT OR TREAT RHUMATOID ARTHRITIS” (INSERM (Institut National de la Santé et de la Recherche …, priority 2019, published 2022).

What was measured:
[1] = biological target: HLA-DRB1*07:01 (Homo sapiens, UniProt P01903+P01911, A100R/A102G/A103Q/D57E/D86V/E43K/F76Y/K127E/L162R/M171V/P40G/Q125H/Q99D/R33Q/R42Y/R54Q/S133A/S66F/T210M/V115G/Y107V/Y59L/Y89S); assay: HLA-DR peptide-binding assay (ELISA); conditions: positive binding = OD equal to the OD for the HA peptide
[2] = biological target: T1, HLA-DRB1*04:01 (Homo sapiens, UniProt P01903+P01911, A100K/A169T/F76Y/I96L/K127E/L162R/M171V/N62H/P40V/Q125Y/R42H/S133A/S149N/S66Y/V115G/V209L/W38E); assay: HLA-DR peptide-binding assay (ELISA); conditions: positive binding = OD equal to the OD for the HA peptide
T1 construct: Purification of HLA-DRB1 molecules from lymphoblastoid cell lines; Total protein extracts were immunoprecipitated by anti-HLA-DR LB3.1 antibody; endogenous in cells; host or cells: SAVC lymphoblastoid cell line, HLA homozygous

[3] = system: 5 purified HLA-DR molecules; assay: HLA-DR peptide-binding assay, panel of alleles and likelihood calculation per genotype; design: species or system human
[4] = biological target: HLA-DRB1*04:02 (Homo sapiens, UniProt P01903+P01911, A100E/A169T/F76Y/K127E/L162R/M171V/N62H/P40V/Q125Y/Q99D/R42H/S133A/S149N/S66Y/V209L/W38E); assay: HLA-DR peptide-binding assay (ELISA); conditions: positive binding = OD equal to the OD for the HA peptide
[5] = biological target: HLA-DRB1*04:04 (Homo sapiens, UniProt P01903+P01911, A100R/A169T/F76Y/I96L/K127E/L162R/M171V/N62H/P40V/Q125Y/R42H/S133A/S149N/S66Y/V209L/W38E); assay: HLA-DR peptide-binding assay (ELISA); conditions: positive binding = OD equal to the OD for the HA peptide
[6] = biological target: T2, HLA-DRB1*01:01 (Homo sapiens, UniProt P01903+P01911, A100R/D57E/F55L/F60I/F76Y/I96L/L162R/M171V/P40L/Q125E/R42F/V115G/Y59C); assay: HLA-DR peptide-binding assay (ELISA); conditions: positive binding = OD equal to the OD for the HA peptide
T2 construct: Purification of HLA-DRB1 molecules from lymphoblastoid cell lines; Total protein extracts were immunoprecipitated by anti-HLA-DR LB3.1 antibody; endogenous in cells; host or cells: JESTHOM lymphoblastoid cell line, HLA homozygous

[7] = system: Mononuclear cells (PBLs) from patients and controls; assay: T cell proliferation assay (BRDU incorporation); assay type: cell-based, human; conditions: healthy controls, 11, 5 μg/ml peptide, 6 days
Description: T cell proliferation assay. Mononuclear cells from patients were isolated from 20 ml of heparinized blood by centrifugation through Ficoll-Histopaque (Sigma Aldrich, St. Quentin-Fallavier, France). Cells were cultured at a density of 10^6 cells/ml in RPMI 1640 with 10% self-serum in the presence of 1 μg/ml of human PAD4 or human fibrinogen or PHA (phytohemagglutinin) or 5 μg/ml of PAD4 peptide. After 6 days of culture at 37° C., proliferative response to proteins was evaluated using the colorimetric bromodeoxyuridine kit (Roche Diagnostics, Meylan, France). Positive T cell responses were defined by optical densities (OD) higher than twice the ODs for cells cultured without protein or peptide.

[8] = biological target: T3, HLA-DR molecule HLA-DRB1*04:04, purified from lymphoblastoid cell line PEYSSON (human); assay: ELISA: peptide coated on plate, purified HLA-DR added
T3 construct: Immunoprecipitated from detergent cell lysate with anti-HLA-DR LB3.1 and eluted at pH 2
Description: (§1) HLA-DR Peptide-binding assay. ELISA plates were coated with 10 μg of PAD4 or fibrinogen peptide/well and blocked in 1% bovine serum albumin (BSA). One microgram of purified HLA-DR molecule was added to plates. After washing, bound HLA-DR was detected by biotinylated anti HLA-DR antibody B8122 (Immunotech, Marseille, France), followed by peroxidase-conjugated avidin. Peroxidase-conjugated anti-mouse IgG and peroxidase-conjugated avidin were supplied by Sigma Aldrich (St. Quentin-Fallavier, France). Optical density was read at 405 nm. The binding of each of the purified HLA-DR alleles was assayed on ELISA plates coated with peptides from PAD4 or Fibrinogen (each in duplicate wells) and, as controls, 2 wells coated with a classical positive binder, influenza hemagglutinin (HA) peptide ([…]). Positive binding was defined as an OD value equal to the OD for the HA peptide.

[9] = biological target: T4, HLA-DR molecule HLA-DRB1*01:01, purified from lymphoblastoid cell line JESTHOM (human); assay: as above
T4 construct: Immunoprecipitated from detergent cell lysate with anti-HLA-DR LB3.1 and eluted at pH 2
Description: as §1

[10] = biological target: T5, HLA-DR molecule HLA-DRB1*07:01, purified from lymphoblastoid cell line MOU (human); assay: as above
T5 construct: Immunoprecipitated from detergent cell lysate with anti-HLA-DR LB3.1 and eluted at pH 2
Description: as §1

[11] = biological target: T6, HLA-DR molecule HLA-DRB1*04:01, purified from lymphoblastoid cell line SAVC (human); assay: as above
T6 construct: Immunoprecipitated from detergent cell lysate with anti-HLA-DR LB3.1 and eluted at pH 2
Description: as §1

[12] = biological target: T7, HLA-DR molecule HLA-DRB1*04:02, purified from lymphoblastoid cell line YAR (human); assay: as above
T7 construct: Immunoprecipitated from detergent cell lysate with anti-HLA-DR LB3.1 and eluted at pH 2
Description: as §1

[13] = system: CD4 T cells; assay: Flow cytometry analysis of whole blood samples stimulated with PAD4; assay type: cell-based, human; conditions: 10 RA patients and 7 controls
Excerpt: One patient with RA (2.4%) and none of the patients with psoriatic arthritis or healthy controls had proliferative response to citrullinated fibrinogen. To confirm that the proliferative response observed in PBLs cultured with PAD4 was due to T cells, we ran flow cytometry analysis in an extra 10 RA patients and 7 controls.

With “DPGVEVTLTMKAASGSTGDQ (Synthetic peptide p8) [peptide 8, 20-mer peptide from human PAD4]” the “binding to HLA-DRB1*07:01” value [1] was “binds”, the “binding to HLA-DRB1*04:01” value [2] was “binds” and the “binding to the five tested HLA-DRB1 alleles” value ([3]; HLA-DRB1*01:01, *04:01, *04:02, *04:04, *07:01) was “bound all five tested HLA-DRB1 alleles”. For the same molecule, the “binding to HLA-DRB1*04:02” value [4] was “binds”, the “binding to HLA-DRB1*04:04” value [5] was “binds” and the “binding to HLA-DRB1*01:01” value [6] was “binds”. The “subjects with T cell proliferative response to peptide (OD ratio higher than 2)” value (“subjects … (OD ratio higher than 2)” below) [7] was 0/11 and no healthy control and the “subjects … (OD ratio higher than 2)” value ([7]; listed as Peptide 8) was 0.

“VRVFQATRGKLSSKCSVVLG (Synthetic Peptide 22) [20-mer peptide from human PAD4]” was tested, and the “binding to HLA-DRB1*04:01” value [2] was “bind HLA-DRB1*04:01 only” and the “subjects … (OD ratio higher than 2)” value [7] was “none of 11”.

B1: peptide 8 from PAD4 (DPGVEVTLTMKAASGSTGDQ) (peptide)
peptide: DPGVEVTLTMKAASGSTGDQ
notes: Synthetic 20-mer, coated on the ELISA plate (10 ug/well); also called p8; peptide p8
B1: binds [8]; binds [9]; binds [10]. B1: binds [11]; binds [12].

B2: peptide 22 from PAD4 (VRVFQATRGKLSSKCSVVLG) (peptide)
peptide: VRVFQATRGKLSSKCSVVLG
notes: Synthetic 20-mer, coated on the ELISA plate (10 ug/well); also called p22; peptide p22
B2: binds [11].

B3: peptidyl arginine deiminase 4 (protein, listed as Homo sapiens)
chain: MAQGTLIRVTPEQPTHAVCVLGTLTQLDICSSAPEDCTSFSINASPGVVVDIAHSPPAKKKSTGSSTWPLDPGVEVTLTMKAASGSTGDQKVQISYYGPKTPPVKALLYLTAVEISLCADITRTGKVKPTRAVKDQRTWTWGPCGQGAILLVNCDRDNLESSAMDCEDDEVLDSEDLQDMSLMTLSTKTPKDFFTNHTLVLHVARSEMDKVRVFQATRGKLSSKCSVVLGPKWPSHYLMVPGGKHNMDFYVEALAFPDTDFPGLITLTISLLDTSNLELPEAVVFQDSVVFRVAPWIMTPNTQPPQEVYACSIFENEDFLKSVTTLAMKAKCKLTICPEEENMDDQWMQDEMEIGYIQAPHKTLPVVFDSPRNRGLKEFPIKRVMGPDFGYVTRGPQTGGISGLDSFGNLEVSPPVTVRGKEYPLGRILFGDSCYPSNDSRQMHQALQDFLSAQQVQAPVKLYSDWLSVGHVDEFLSFVPAPDRKGFRLLLASPRSCYKLFQEQQNEGHGEALLFEGIKKKKQQKIKNILSNKTLREHNSFVERCIDWNRELLKRELGLAESDIIDIPQLFKLKEFSKAEAFFPNMVNMLVLGKHLGIPKPFGPVINGRCCLEEKVCSLLEPLGLQCTFINDFFTYHIRHGEVHCGTNVRRKPFSFKWWNMVP
notes: Human PAD4 protein produced in baculovirus expression system
In the case of B3, the “Likelihood to bind at least one peptide from” value (shortened to “Likelihood to bind”) ([3]; genotype DRB1*01:01/01:01) is reported as 0.061, the “Likelihood to bind” value ([3]; genotype DRB1*01:01/04:01) is reported as 0.165 and the “Likelihood to bind” value ([3]; genotype DRB1*01:01/04:04) is reported as 0.120. The “Likelihood to bind” value ([3]; genotype DRB1*01:01/07) was 0.076, the “Likelihood to bind” value ([3]; genotype DRB1*04:01/04:01) was 0.258 and the “Likelihood to bind” value ([3]; genotype DRB1*04:01/04:04) was 0.218. For the same molecule, the “Likelihood to bind” value ([3]; genotype DRB1*04:01/07) was 0.178, the “Likelihood to bind” value ([3]; genotype DRB1*04:02/07) was 0.090 and the “Likelihood to bind” value ([3]; genotype DRB1*04:04/04:02) was 0.134. The “Likelihood to bind” value ([3]; genotype DRB1*04:04/04:04) was 0.176, the “Likelihood to bind” value ([3]; genotype DRB1*04:04/07) was 0.134 and the “Likelihood to bind” value ([3]; genotype DRB1*07/07) was 0.090. The “expression of CD154 (T cell early activation marker) on CD4 T cells” value [13] was “increased expression of CD154” and the “production of TNF alpha by CD4 T cells” value [13] was “increased production of TNF alpha”.
